What follows are sequences tested on Escherichia coli TOP10 (assay: shrunken log2 fold change of peptide-encoding DNA abundance (4.5 h post-induction vs induction); higher = less antimicrobial activity (less host growth inhibition)). Conditions: time post-induction: 4.5 h; library: site-saturation at positions 5, 18, 19, 20.
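Further: peptides expressed intracellularly from a pBAD plasmid library in pooled LB shake-flask culture, induced with 0.3% L-arabinose, DNA abundance read by NGS, three biological replicates, DESeq2 with apeglm shrinkage.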

Row | Sequence | shrunken log2 fold change
1 | RRIRERPPRLPRPRPRPIWIPRP | -0.222
2 | RRIRERPPRLPRPRPRPIWKPRP | -0.644
3 | RRIRERPPRLPRPRPRPIYAPRP | -0.086
4 | RRIRERPPRLPRPRPRPKCGPRP | 0.0971
5 | RRIRERPPRLPRPRPRPKETPRP | 0.0319
6 | RRIRERPPRLPRPRPRPKGLPRP | 0.0211
7 | RRIRERPPRLPRPRPRPKHEPRP | -0.205
8 | RRIRERPPRLPRPRPRPKHGPRP | -0.017
9 | RRIRERPPRLPRPRPRPKKHPRP | -0.55
10 | RRIRERPPRLPRPRPRPKMCPRP | -0.149
11 | RRIRERPPRLPRPRPRPKPIPRP | -0.128
12 | RRIRERPPRLPRPRPRPKREPRP | 0.118
13 | RRIRERPPRLPRPRPRPKSFPRP | 0.0203
14 | RRIRERPPRLPRPRPRPKVFPRP | 0.0354
15 | RRIRERPPRLPRPRPRPKVSPRP | -0.205
16 | RRIRERPPRLPRPRPRPKWEPRP | 0.0179
17 | RRIRERPPRLPRPRPRPKWPPRP | 0.016
18 | RRIRERPPRLPRPRPRPKYMPRP | 0.822
19 | RRIRERPPRLPRPRPRPLAFPRP | -0.0552
20 | RRIRERPPRLPRPRPRPLATPRP | 0.133
21 | RRIRERPPRLPRPRPRPLCVPRP | -0.307
22 | RRIRERPPRLPRPRPRPLDEPRP | -0.396

Row | Sequence | shrunken log2 fold change
23 | RRIRERPPRLPRPRPRPLDGPRP | -0.0344
24 | RRIRERPPRLPRPRPRPLEDPRP | -0.157
25 | RRIRERPPRLPRPRPRPLEFPRP | -0.542
26 | RRIRERPPRLPRPRPRPLELPRP | 0.086
27 | RRIRERPPRLPRPRPRPLFMPRP | -0.222
28 | RRIRERPPRLPRPRPRPLFVPRP | -0.799
29 | RRIRERPPRLPRPRPRPLGCPRP | -0.166
30 | RRIRERPPRLPRPRPRPLGDPRP | -0.0627
31 | RRIRERPPRLPRPRPRPLHFPRP | -0.141
32 | RRIRERPPRLPRPRPRPLHRPRP | -0.0862
33 | RRIRERPPRLPRPRPRPLIMPRP | -0.781
34 | RRIRERPPRLPRPRPRPLIRPRP | -0.0588
35 | RRIRERPPRLPRPRPRPLIWPRP | -0.364
36 | RRIRERPPRLPRPRPRPLMLPRP | -0.813
37 | RRIRERPPRLPRPRPRPLMMPRP | -0.263
38 | RRIRERPPRLPRPRPRPLMQPRP | 0.0114
39 | RRIRERPPRLPRPRPRPLMSPRP | -0.406
40 | RRIRERPPRLPRPRPRPLNDPRP | -0.272
41 | RRIRERPPRLPRPRPRPLNGPRP | -0.254
42 | RRIRERPPRLPRPRPRPLNIPRP | -0.662
43 | RRIRERPPRLPRPRPRPLNLPRP | -0.312
44 | RRIRERPPRLPRPRPRPLPPPRP | 0.124

Row | Sequence | shrunken log2 fold change
45 | RRIRERPPRLPRPRPRPLQIPRP | -0.0796
46 | RRIRERPPRLPRPRPRPLRTPRP | 0.00359
47 | RRIRERPPRLPRPRPRPLRYPRP | -0.0652
48 | RRIRERPPRLPRPRPRPLVMPRP | -0.0346
49 | RRIRERPPRLPRPRPRPLVQPRP | 0.0736
50 | RRIRERPPRLPRPRPRPLWPPRP | 0.0539
51 | RRIRERPPRLPRPRPRPLYHPRP | -0.419
52 | RRIRERPPRLPRPRPRPLYSPRP | -0.54
53 | RRIRERPPRLPRPRPRPMAAPRP | 0.421
54 | RRIRERPPRLPRPRPRPMAVPRP | 0.19
55 | RRIRERPPRLPRPRPRPMHDPRP | -0.286
56 | RRIRERPPRLPRPRPRPMIAPRP | 0.121
57 | RRIRERPPRLPRPRPRPMIPPRP | -0.0272
58 | RRIRERPPRLPRPRPRPMKIPRP | 0.0286
59 | RRIRERPPRLPRPRPRPMKSPRP | -0.163
60 | RRIRERPPRLPRPRPRPMLCPRP | 0.05
61 | RRIRERPPRLPRPRPRPMNDPRP | -0.0199
62 | RRIRERPPRLPRPRPRPMNFPRP | -0.192
63 | RRIRERPPRLPRPRPRPMNQPRP | -0.67
64 | RRIRERPPRLPRPRPRPMQFPRP | -0.248
65 | RRIRERPPRLPRPRPRPMSLPRP | 0.0379
66 | RRIRERPPRLPRPRPRPMSYPRP | -0.00931

Row | Sequence | shrunken log2 fold change
67 | RRIRERPPRLPRPRPRPMTKPRP | -0.0224
68 | RRIRERPPRLPRPRPRPMWAPRP | -0.122
69 | RRIRERPPRLPRPRPRPMYAPRP | -0.246
70 | RRIRERPPRLPRPRPRPMYKPRP | -0.0299
71 | RRIRERPPRLPRPRPRPNAPPRP | 0.0774
72 | RRIRERPPRLPRPRPRPNCNPRP | -0.848
73 | RRIRERPPRLPRPRPRPNDAPRP | -0.19
74 | RRIRERPPRLPRPRPRPNFAPRP | 0.387
75 | RRIRERPPRLPRPRPRPNFKPRP | -0.181
76 | RRIRERPPRLPRPRPRPNGRPRP | -0.033
77 | RRIRERPPRLPRPRPRPNHKPRP | -0.823
78 | RRIRERPPRLPRPRPRPNHYPRP | -1.57
79 | RRIRERPPRLPRPRPRPNINPRP | -1.05
80 | RRIRERPPRLPRPRPRPNIQPRP | -0.357
81 | RRIRERPPRLPRPRPRPNKGPRP | -0.164
82 | RRIRERPPRLPRPRPRPNMHPRP | -0.619
83 | RRIRERPPRLPRPRPRPNMNPRP | -0.808
84 | RRIRERPPRLPRPRPRPNMRPRP | 0.131
85 | RRIRERPPRLPRPRPRPNNRPRP | -0.315
86 | RRIRERPPRLPRPRPRPNNWPRP | -0.524
87 | RRIRERPPRLPRPRPRPNPVPRP | -0.424
88 | RRIRERPPRLPRPRPRPNQEPRP | 0.0174

Row | Sequence | shrunken log2 fold change
89 | RRIRERPPRLPRPRPRPNREPRP | -0.0209
90 | RRIRERPPRLPRPRPRPNRGPRP | -0.00351
91 | RRIRERPPRLPRPRPRPNRQPRP | 0.0895
92 | RRIRERPPRLPRPRPRPNSAPRP | -0.503
93 | RRIRERPPRLPRPRPRPNSRPRP | -0.481
94 | RRIRERPPRLPRPRPRPNSTPRP | -0.495
95 | RRIRERPPRLPRPRPRPNSVPRP | 0.0407
96 | RRIRERPPRLPRPRPRPNSWPRP | -0.0404
97 | RRIRERPPRLPRPRPRPNTQPRP | -0.187
98 | RRIRERPPRLPRPRPRPNVSPRP | -0.00968
99 | RRIRERPPRLPRPRPRPNWAPRP | 0.0312
100 | RRIRERPPRLPRPRPRPNWMPRP | -0.24
101 | RRIRERPPRLPRPRPRPNYLPRP | -0.0974
102 | RRIRERPPRLPRPRPRPNYRPRP | -0.000813
103 | RRIRERPPRLPRPRPRPNYWPRP | -0.344
104 | RRIRERPPRLPRPRPRPPAWPRP | 0.0898
105 | RRIRERPPRLPRPRPRPPCKPRP | -0.208
106 | RRIRERPPRLPRPRPRPPCPPRP | 1.27
107 | RRIRERPPRLPRPRPRPPETPRP | -0.0785
108 | RRIRERPPRLPRPRPRPPFMPRP | -0.185
109 | RRIRERPPRLPRPRPRPPHQPRP | -0.0506

From the supplement of paper PMC9112550, “Optimization of the antimicrobial peptide Bac7 by deep mutational scanning” (BMC Biology, 2022)
